According to US8084228B2, “Nogo-B receptor antagonists” (Yale University, priority 2006, dated 2011):

How the values were obtained:
Endothelial cells = test: Am-Nogo-B-induced migration of endothelial cells, inhibition by NgBR ectodomain peptides or fusion protein; assay type: cell-based; conditions: peptide 200 nM, Am-Nogo-B 100 nM
Procedure: (§1) Cell migration was examined in modified Boyden chambers using 10 nM each of purified recombinant AP, AP fusion of Nogo-66 (AP-Nogo-66) or Am-Nogo-B. The transwell inserts (Costar transwell inserts; Corning) were coated with a solution of 0.1% gelatin (Sigma) in PBS at 4° C. overnight and then air-dried. VEGF at 50 ng/mL (1.1 nM) or recombinant Am-Nogo-B at various concentrations dissolved in medium 199 containing 0.1% BSA was added in the bottom chamber of the Boyden apparatus. HUVEC (200,000 cells) suspended in a 100 μL aliquot of medium 199 containing 0.1% BSA was added to the upper chamber. After 5 hours incubation, cells on both sides of the membrane were fixed and stained with a Diff-Quik staining kit (Baxter Healthcare, Miami, Fla.). The average number of cells from five randomly chosen high-power (×400) fields on the lower side of the membrane was counted.
Endothelial cells were incubated with vehicle (control) of one of peptides P1-P4 (200 nM each) in the presence of Am-Nogo-B (100 nM).
Similarly, treatment of endothelial cells with mFc-ecto, but not mFc, blocked Am-Nogo-B-induced cell migration (FIG. 35).

NgBR mRNA = NgBR mRNA by quantitative PCR after siRNA transfection of HUVEC; assay type: cell-based, human; conditions: 72 hours after transfection, normalized to 18S
Procedure: (§2) NgBR siRNA oligonucleotides (SEQ ID NOS:2-5) with 3′ dTdT overhangs were synthesized by Qiagen. Control siRNA in experiments refers to a nonsilencing (NS) siRNA (NS forward: UUCUCCGAACGUGUCACGU, SEQ ID NO:7; NS reverse: ACGUGACACGUUCGGAGAA, SEQ ID NO:8) designed and synthesized by Qiagen. HUVEC and CHO stable cell lines were transfected with siRNA by using Oligofectamine. Quantification of NgBR mRNA and protein, ligand binding assay, and migration assay were performed at 72 hours after transfection.
Total RNA from cells was isolated by using the RNeasy kit (Qiagen). Reverse transcription was then performed by using 100 ng of RNA and the Superscript First-Strand Synthesis System kit (Invitrogen). Real-time PCR analysis was done with the iCycler iQ detection system using the iQ SYBR green Supermix kit (Bio-Rad). The NgBR mRNA level was normalized by housekeeping gene 18S. The following primers were used for NgBR: forward, 5′-[…]-3′ (SEQ ID NO:9) and reverse, 5′-[…]-3′ (SEQ ID NO:10). The following primers were used for 18S: forward, 5′-[…]-3′ (SEQ ID NO:11) and reverse, 5′-[…]-3′ (SEQ ID NO:12).

HUVEC [1] = test: AP-Am-Nogo-B binding to HUVEC after siRNA transfection; assay type: cell-based, human; conditions: 72 hours after siRNA transfection
Procedure: (§3) To detect AP-Am-Nogo-B binding, cultures were washed with Hanks' balanced salt solution (HBSS) containing 20 mM HEPES, pH 7.5, and 1 mg/mL BSA (HBH). The plates were then incubated with AP-Am-Nogo-B in DMEM containing 20 mM Hepes, pH 7.5, and 1 mg/mL BSA for 2 hours at 4° C. The bound AP-Am-Nogo-B was detected by using the Blue Substrate kit (Vector Laboratories). The blue staining was examined by using the ODYSSEY Infrared Imaging System (Li-Cor, Lincoln, Nebr.) and confirmed by microscopy. Alternatively, the bound AP-Am-Nogo-B was extracted with Triton X-100, and AP activity was colorimetrically quantified by using p-nitrophenyl phosphate (Sigma) as substrate after heat inactivation of endogenous AP. Non-specific binding was determined by measuring binding in the presence of a 100-fold molar excess of recombinant Am-Nogo-B lacking the AP fusion protein. Specific binding was determined by subtracting the non-specific binding from total binding. For determination of apparent Kd, the binding of AP-Am-Nogo-B was measured in triplicate as described above and the Kd value was quantified by using the Scatchard plot program of GraphPad PRISM (one-site binding, linear regression) using the ratio of bound ligand to free ligand as the y axis and bound ligand (pM) as the x axis.
as §2

HUVEC [2] = test: HUVEC migration in modified Boyden chambers; assay type: cell-based, human; conditions: 10 nM purified recombinant protein, 5 hours
Procedure: The migratory response of human umbilical vein endothelial cells (HUVEC) in response to a gradient of recombinant, purified alkaline phosphatase (AP) fusion protein expressing Am-Nogo-B or a recombinant purified Am-Nogo-B was examined. HUVEC were cultured in M199 with 20% FBS and endothelial cell growth supplement (ECGS).
as §1

HUVEC [3] = test: Binding of AP fusion proteins to the surface of HUVEC; parameters: species or system human; conditions: HUVEC (FIGS. 12, 15)
Procedure: as §3

Nogo receptor = biological target: T1, Nogo receptor (Homo sapiens, UniProt Q9BZR6); test: AP fusion protein binding to COS cells transfected with cDNA encoding the Nogo receptor; conditions: COS cells (FIG. 6)
T1 construct: expressed in transfected cells; host or cells: COS-7
T1 sequence (Q9BZR6 27-447): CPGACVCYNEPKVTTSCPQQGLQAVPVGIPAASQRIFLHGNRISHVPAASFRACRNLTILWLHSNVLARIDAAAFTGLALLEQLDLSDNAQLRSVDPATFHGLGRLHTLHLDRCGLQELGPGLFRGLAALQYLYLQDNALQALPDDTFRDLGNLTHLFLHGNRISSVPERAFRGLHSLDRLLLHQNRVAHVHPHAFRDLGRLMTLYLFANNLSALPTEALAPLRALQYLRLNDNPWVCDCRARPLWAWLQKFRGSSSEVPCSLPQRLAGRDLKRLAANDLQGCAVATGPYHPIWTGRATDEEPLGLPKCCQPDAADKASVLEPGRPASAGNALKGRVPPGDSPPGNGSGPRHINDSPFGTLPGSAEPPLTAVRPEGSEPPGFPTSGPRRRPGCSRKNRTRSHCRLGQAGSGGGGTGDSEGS
Procedure: as §3
(§4) For expression cloning of Am-Nogo-B receptor, pools of 5,000 arrayed clones from a human heart cDNA library (OriGene Technologies, Rockville, Md.) were transfected into COS-7 cells, and AP-Am-Nogo-B binding was assessed by using AP versus AP-Am-Nogo-B binding and detection of the AP product by near-infrared cell imaging (Li-Cor, Lincoln, Nebr.) or AP activity assays.

NgBR [4] = biological target: T2, NgBR (Homo sapiens, UniProt Q96E22); test: AP fusion protein binding to CHO cells expressing NgBR; parameters: an isolated cDNA encoding NgBR is 2,636 base pairs encoding an open reading frame of 293 amino acids; expressed in transfected cells; conditions: for surface binding of AP fusion domains to NgBR-expressing cells: CHO cells expressing NgBR (FIGS. 11, 14)
T2 sequence (Q96E22 1-293): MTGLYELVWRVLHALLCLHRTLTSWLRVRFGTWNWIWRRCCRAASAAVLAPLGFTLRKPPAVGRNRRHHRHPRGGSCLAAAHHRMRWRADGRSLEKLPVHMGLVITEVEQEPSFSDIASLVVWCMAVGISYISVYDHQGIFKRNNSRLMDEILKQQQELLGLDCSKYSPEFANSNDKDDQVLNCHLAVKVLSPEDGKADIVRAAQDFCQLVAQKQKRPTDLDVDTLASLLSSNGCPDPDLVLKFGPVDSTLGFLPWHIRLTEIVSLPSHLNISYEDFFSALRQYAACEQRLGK
Procedure: as §3
A recombinant AP-Am-Nogo-B fusion protein was used to screen a cDNA expression library from human heart (500,000 independent clones) transfected into COS or CHO cells using Lipofectamine 2000 (Invitrogen). COS-7 cells were cultured in high-glucose DMEM with 10% FBS. CHO cells were cultured in MEM-α with 5% FBS.

NgBR [5] = biological target: T2, NgBR; test: AP fusion protein binding to COS cells transfected with the isolated NgBR cDNA; parameters: an isolated cDNA encoding NgBR is 2,636 base pairs encoding an open reading frame of 293 amino acids; expressed in transfected cells; host or cells: COS-7 (A4); conditions: COS cells (FIG. 6)
Procedure: as §3, §4
Single NgBR cDNA clones were isolated by sib selection and sequenced. […] The HA-tagged NgBR was immunoisolated with anti-HA immunobeads (Roche, Indianapolis, Ind.) and associated proteins analyzed by Western blotting. For the Western blots, expression of NgBR-HA was detected by using anti-HA (Roche) and NgBR (Imgenex), respectively, and beta-actin (Sigma) or Hsp90 (BD Biosciences-Pharmingen) was used to control for loading.

Molecule: P2: NgBR ectodomain peptide LAPLGFTLRKPPAVGRNRRHHRHPRGGSCL (SEQ ID NO: 14) (listed as Homo sapiens)
- Am-Nogo-B-induced migration of endothelial cells in presence of peptide (Endothelial cells): effectively reduced

Molecule: P4: NgBR ectodomain peptide ADGRSLEKLPVHMGLVITEVEQEPSFSD (SEQ ID NO: 16) (listed as Homo sapiens)
- Am-Nogo-B-induced migration of endothelial cells in presence of peptide (Endothelial cells): to a lesser extent

Molecule: PP2: truncated version of P2, TLRKPPAVGRNRRHHRHPRG (SEQ ID NO: 18) (listed as Homo sapiens)
- Am-Nogo-B-induced migration of endothelial cells in presence of peptide (Endothelial cells): nearly identical to that of P2

Molecule: nonsilencing RNA: nonsilencing (NS) control siRNA by Qiagen; forward UUCUCCGAACGUGUCACGU (SEQ ID NO:7) (antisense ACGUGACACGUUCGGAGAA; listed as RNA, chemistry not given here) [reference compound]
- level of NgBR mRNA (NgBR mRNA): not
- binding of AP-Am-Nogo-B to HUVEC (HUVEC [1]): not

Molecule: scrambled version of P2: scrambled P2 control PGRHLKPSRFNARLHGPCRVLRAHGPLTRG (SEQ ID NO: 17) (scrambled version of SEQ ID NO 14) [reference compound]
- Am-Nogo-B-induced migration of endothelial cells in presence of peptide (Endothelial cells): did not block

B1: AP-Nogo-66: AP fusion of Nogo-66, a 66 amino acid residue loop in the RHD (protein)
chain: RIYKGVIQAIQKSDEGHPFRAYLESEVAISEELVQKYSNSALGHVNCTIKELRRLFLVDDLVDSLK
modifications: left off: large carriers
notes: AP fusion of Nogo-66, a 66 amino acid residue loop in the RHD
- HUVEC migration (HUVEC [2]): does not promote
- surface binding of AP fusion domains to HUVEC (HUVEC [3]): did not bind
- binding to COS cells transfected with Nogo receptor cDNA (Nogo receptor): selectively bind
- surface binding of AP fusion domains to NgBR-expressing cells (NgBR [4]): did not bind
- binding to CHO cells stably expressing NgBR (NgBR [4]; increasing concentrations, 2 hours at 4° C.): not
- binding to COS cells transfected with the isolated NgBR cDNA (NgBR [5]): not

B2: AP-Nogo-B (amino acids 1-180): AP fusion with amino acids 1-180 of Nogo-B (protein)
chain: MEDLDQSPLVSSSDSPPRPQPAFKYQFVREPEDEEEEEEEEEEDEDEDLEELEVLERKPAAGLSAAPVPTAPAAGAPLMDFGNDFVPPAPRGPLPAAPPVAPERQPSWDPSPVSSTVPAPSPLSAAAVSPSKLPEDDEPPARPPPPPPASVSPQAEPVWTPPAPAPAAPPSTPAAPKRRG
modifications: left off: large carriers
notes: AP fusion with amino acids 1-180 of Nogo-B
- surface binding of AP fusion domains to HUVEC (HUVEC [3]): did not bind
- surface binding of AP fusion domains to NgBR-expressing cells (NgBR [4]): did not bind

B3: Ap-Nogo-B (61-200): AP fusion with amino acids 61-200 of Nogo-B (protein)
chain: AGLSAAPVPTAPAAGAPLMDFGNDFVPPAPRGPLPAAPPVAPERQPSWDPSPVSSTVPAPSPLSAAAVSPSKLPEDDEPPARPPPPPPASVSPQAEPVWTPPAPAPAAPPSTPAAPKRRGSSGSVVVDLLYWRDIKKTGV
modifications: left off: large carriers
notes: AP fusion with amino acids 61-200 of Nogo-B
- surface binding of AP fusion domains to HUVEC (HUVEC [3]): did
- surface binding of AP fusion domains to NgBR-expressing cells (NgBR [4]): did

B4: AP-Nogo-A (59-172): AP fusion with biologically active domain 59-172 of Nogo-A (protein)
chain: PAAGLSAAPVPTAPAAGAPLMDFGNDFVPPAPRGPLPAAPPVAPERQPSWDPSPVSSTVPAPSPLSAAAVSPSKLPEDDEPPARPPPPPPASVSPQAEPVWTPPAPAPAAPPST
modifications: left off: large carriers
- surface binding of AP fusion domains to HUVEC (HUVEC [3]): did not bind
- surface binding of AP fusion domains to NgBR-expressing cells (NgBR [4]): did not bind
